Test results taken from patent US20230348589A1.
Residue numbers refer to the chain shown, from its start.

B1: PA2R3-P1F1 (chimeric) (antibody, V domains shown)
VH: EVQLQQSGAELMKPGASVKISCKATGYTFSSYWIEWVKQRPGHGLEWIGEILPGSGSTNYNEKFKGKATFTADTSSNTAYMQLSSLTSEDSAVYYCARGAWLLSYWYFDVWGAGTSVTVSS
VL: DIQMMQSTSSLSASLGDRVTISCSASQGISNYLNWYQQKPDGTVKLLIYYTSSLHSGVPSRFSGSGSGTQFSLKINSLQPEDFGSYYCQHHYGTPYTFGGGTKLELKR
B2: PA2LR3-P1G6 (chimeric) (antibody, V domains shown)
VH: EVQLQQSGAELVRPGSSVKISCKASGYAFSYYWMNWVKQRPGQGLEWIGQIYPGDGDTNYNGKFKGKATLTVDKSSSTAYMQLSSLTSEDSAVYFCARSHGNYFAYWGQGTLVTVSA
VL: DIVLSQSPAIMSASLGERVTMTCTASSSVSSSYLHWYQQKPGSSPKLWIYSTSNLASGVPARFSGSGSGTSYSLTISRMEAEDAATYYCQQWSSYPLTFGAGTKLELKR
B3: PA2LR3-P2B8 (chimeric) (antibody, V domains shown)
VH: B2 VH with V72A
VL: B2 VL with L4M, S5T, V29I, R78S, Q90H, W92Y, S93H, S94R, Y95S, T98A
B4: PA2LR3-P1H4 (chimeric) (antibody, V domains shown)
VH: B2 VH with A28V, S30G, Y31N, V72A, A105P
VL: B2 VL with D1Q, S5T, R78S
B5: PA2LR3-P3B8 (chimeric) (antibody, V domains shown)
VH: B2 VH with Y27F, Y31N, Y60F, K67R, T69I, V72A, K74I, S77N, A105P
VL: B2 VL with L4M, S5T, S51G, A61V, R78S
B6: PA2LR3-P2E5 (chimeric) (antibody, V domains shown)
VH: B2 VH with S30R, Y31D, D57A, N61I, V72A, A105P, Q109H
VL: B2 VL with D1Q, S5T, R78S
B7: PA2LR3-P4B1 (chimeric) (antibody, human IgG1, kappa, V domains shown)
VH: B2 VH with Y27F, Y31N, Y60F, K67R, T69I, V72A, K74I, S77N, A105P
VL: B2 VL with D1Q, S5T, R78S, Q90H, W92Y, S93H, S94R, Y95S
B8: PA2LR3-P4G10 (chimeric) (antibody, V domains shown)
VH: B2 VH with S7F, V72A
VL: B2 VL with S5T, R78S, Y95N
B9: PA2LR3-P2D3 (chimeric) (antibody, human IgG1, kappa, V domains shown)
VH: B2 VH with V72A, N102S
VL: DIELAQSPASLAVSLGQRATISCRASESVDSYGNSFMHWYQQKPGQPPKLLIYLASNLESGVPARFSGSGSRADFTLTIDPVEADDAATYYCLQYASSPPTFGAGTKLEIKR
B10: PA2LR3-P3B10 (chimeric) (antibody, V domains shown)
VH: B2 VH with V72A, A105P
VL: B2 VL with L4I, S5T, M11V, R78S, L107I
B11: PA2LR3-P4C6 (chimeric) (antibody, V domains shown)
VH: B2 VH with V72A, A105P
VL: B2 VL with L4I, S5T, M11V, R78S, L107I

Key:
[1] = biological target: A138 iCAPS (purified human CB1 with ICL3 native sequence replaced with protein 1 sequence, in lipid bilayer) (human) (UniProt P21554); assay: ELISA, purified IgG on CB1 iCAPS
Sequence of A138 iCAPS (purified human CB1 with ICL3 native sequence replaced with protein 1 sequence, in lipid bilayer) (human) (P21554 whole entry): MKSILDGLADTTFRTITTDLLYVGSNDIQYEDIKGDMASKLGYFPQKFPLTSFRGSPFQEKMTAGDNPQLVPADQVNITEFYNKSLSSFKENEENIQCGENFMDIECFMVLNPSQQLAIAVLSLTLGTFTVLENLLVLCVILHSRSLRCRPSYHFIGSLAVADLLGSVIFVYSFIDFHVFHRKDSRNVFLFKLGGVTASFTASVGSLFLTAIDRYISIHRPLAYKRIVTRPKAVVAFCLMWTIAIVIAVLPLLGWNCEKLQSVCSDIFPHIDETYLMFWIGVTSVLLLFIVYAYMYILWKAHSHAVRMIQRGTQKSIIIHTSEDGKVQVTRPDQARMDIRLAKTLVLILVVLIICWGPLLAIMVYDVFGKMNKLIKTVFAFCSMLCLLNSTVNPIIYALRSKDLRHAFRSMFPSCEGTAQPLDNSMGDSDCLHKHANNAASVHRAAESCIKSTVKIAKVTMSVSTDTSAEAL

[2] = biological target: A139 iCAPS (purified human CB1 with ICL3 native sequence replaced with BRIL, in lipid bilayer) (human) (UniProt P21554); assay: ELISA, purified IgG on CB1 iCAPS
Sequence of A139 iCAPS (purified human CB1 with ICL3 native sequence replaced with BRIL, in lipid bilayer) (human) (P21554 whole entry): as above

Binder	EC50 [1] [nM]	EC50 [2] [nM]
B1	1.3	1.1
B2	81	35
B3	6.7	1.8
B4	21	33.5
B5	71	
B6	10	3.2
B7	1.28	1.41
B8	1.19	1.35
B9	4.9	2.6
B10	1.4	0.78
B11	0.4	0.4
